Results published in US9949489B2, “Methods for control of hemipteran insect stylet sheath structure formation” (The United States of America, as Represented by the …, priority 2015, dated 2018).

B1: Trypsin from bovine pancreas: Serine peptidase; Sigma #T8658 (protein, UniProt P00760 24-246, looked up)
Serine protease 1: IVGGYTCGANTVPYQVSLNSGYHFCGGSLINSQWVVSAAHCYKSGIQVRLGEDNINVVEGNEQFISASKSIVHPSYNSNTLNNDIMLIKLKSAASLNSRVASISLPTSCASAGTQCLISGWGNTKSSGTSYPDVLKCLKAPILSDSSCKSAYPGQITSNMFCAGYLEGGKDSCQGDSGGPVVCSGKLQGIVSWGSGCAQKNKPGVYTKVCNYVSWIKQTIASN
B2: Proteinase K from Tritirachium album: Broad protease specificity; Fischer #BP1700-100 (protein, UniProt P06873 106-384, looked up)
Proteinase K: AAQTNAPWGLARISSTSPGTSTYYYDESAGQGSCVYVIDTGIEASHPEFEGRAQMVKTYYYSSRDGNGHGTHCAGTVGSRTYGVAKKTQLFGVKVLDDNGSGQYSTIIAGMDFVASDKNNRNCPKGVVASLSLGGGYSSSVNSAAARLQSSGVMVAVAAGNNNADARNYSPASEPSVCTVGASDRYDRRSSFSNYGSVLDIFGPGTSILSTWIGGSTRSISGTSMATPHVAGLAAYLMTLGKTTAASACRYIADTANKGDLSNIPFGTVNLLAYNNYQA
B3: Amyloglucosidase from Aspergillus niger: Hydrolyses α-D-(1-4), α-D-(1-6) and α-D-(1-3) glucosidic bonds of oligosaccharides; Sigma #A7420 (protein, UniProt P69328 25-640, looked up)
Glucoamylase: ATLDSWLSNEATVARTAILNNIGADGAWVSGADSGIVVASPSTDNPDYFYTWTRDSGLVLKTLVDLFRNGDTSLLSTIENYISAQAIVQGISNPSGDLSSGAGLGEPKFNVDETAYTGSWGRPQRDGPALRATAMIGFGQWLLDNGYTSTATDIVWPLVRNDLSYVAQYWNQTGYDLWEEVNGSSFFTIAVQHRALVEGSAFATAVGSSCSWCDSQAPEILCYLQSFWTGSFILANFDSSRSGKDANTLLGSIHTFDPEAACDDSTFQPCSPRALANHKEVVDSFRSIYTLNDGLSDSEAVAVGRYPEDTYYNGNPWFLCTLAAAEQLYDALYQWDKQGSLEVTDVSLDFFKALYSDAATGTYSSSSSTYSSIVDAVKTFADGFVSIVETHAASNGSMSEQYDKSDGEQLSARDLTWSYAALLTANNRRNSVVPASWGETSASSVPGTCAATSAIGTYSSVTVTSWPSIVATGGTTTTATPTGSGSVTSTSKTTATASKTSTSTSSTSCTTPTAVAVTFDLTATTTYGENIYLVGSISQLGDWETSDGIALSADKYTSSDPLWYVTVTLPAGESFEYKFIRIESDDSVEWESDPNREYTVPQACGTSTATVTDTWR
B4: Papain from papaya latex: Cysteine peptidase; Sigma #P5306 (protein, UniProt P00784 134-345, looked up)
Papain: IPEYVDWRQKGAVTPVKNQGSCGSCWAFSAVVTIEGIIKIRTGNLNEYSEQELLDCDRRSYGCNGGYPWSALQLVAQYGIHYRNTYPYEGVQRYCRSREKGPYAAKTDGVRQVQPYNEGALLYSIANQPVSVVLEAAGKDFQLYRGGIFVGPCGNKVDHAVAAVGYGPNYILIKNSWGTGWGENGYIRIKRGTGNSYGVCGLYTSSFYPVKN

Tests used:
[1] = test system: D. citri stylet sheaths (ACP SSs); test: Degradation of preformed, solidified stylet sheaths by enzymes (MFC membrane or slide incubation); parameters: species or system Diaphorina citri; key to Sheath Degradation: −: No effect apparent; +/−: inconclusive; +: apparent slight effect; ++: increased apparent effect; +++: high effect; ++++: very high effect; +++++: complete degradation of sheaths or inhibition of sheath synthesis; settings: for Sheath Degradation: enzyme concentration, pH and temperature per Table 4 (cellulase 1:25, pH 6.0, 60° C.); for Effect on preformed D. citri stylet sheaths: cellulase 1:25, pH 6.0, 60° C., 72 hours, Flavourzyme about 30 minutes, proteinase K 55° C. overnight
Experimental: In order to test cellulase's effect on preformed ACP SSs, formed, solidified stylet sheaths were harvested directly from the surface of an MFC membrane (in these experiments either plastic wrap or parafilm was used) as described herein and in Morgan et al. 2013, supra. Approximately 100 psyllids were placed into an MFC for about 24 hours. The MFCs consisted of D. citri caged individually and/or in groups within 100 mm×15 mm plastic Petri dishes. A single kitchen plastic wrap layer was stretched across the top of each Petri dish to seal the Petri dish from insect escape and to provide a stylet penetrable surface for insect probing.
Several MFCs (the Petri dishes covered with kitchen plastic wrap or parafilm and containing D. citri) were placed into clear Pyrex® baking dishes with the membrane (kitchen plastic wrap or parafilm) side up, and the Pyrex® baking dish is covered with a single layer of clear kitchen plastic wrap to prevent external contaminant interactions with the membrane surface during incubation. MFCs were incubated at a temperature of about 25° C., relative humidity of about 75%, and a light:dark cycle of about 14:1. Collection of partial stylet sheaths, shaft/branching portions without the flange, was performed using deionized water applied directly to the sheath surface to wash the surface of the MFC, and then the application of approximately 100 μl of an approximately 50 mM sodium phosphate buffer at a pH of approximately 6.0 for direct harvest of partial sheaths from the membrane surface using a bent glass rod to scour the plastic wrap surface to dislodge the stylet sheaths. The sodium phosphate buffer containing dislodged sheath shafts was removed using a pipette and placed in a microcentrifuge tube (1.5 ml tube), and cellulase (Sigma #C2605, Sigma Aldrich, St. Louis, Mo.) was added by ratio at approximately 1 part cellulase to 25 parts sodium phosphate buffer (approximately 1:25 ratio). Approximately 15 μl was then transferred to a pre-cleaned glass slide (Fisher, #12-550-19, Thermo Fisher Scientific, Inc., Waltham Mass.), covered with a premium cover slip, and edges sealed using clear nail polish CG, 3INI NL #Q004 SHN ON (CoverGirl, Hunt Valley, Md.) to keep the buffer from evaporating during incubation. This slide was then placed in an approximately 60° C. incubator of about 72 hours and observed at about 24 hour intervals.
FIGS. 3A, 3B, and 3C and FIGS. 3D, 3E, and 3F are light micrograph pictures of repeated experiments representing separate treatment of two salivary sheaths. FIG. 3A and FIG. 3D are separate salivary sheaths prior to the addition of cellulase. FIG. 3B and FIG. 3E are the same sheaths, respectively, after 72 hours incubation with cellulase. FIG. 3C and FIG. 3F are the same sheaths, respectively, when gentle pressure was applied to the coverslip over the sheaths that had been incubated with cellulase for 72 hours. […] Because of the observed result with cellulase, sheath degradation experiments as described above for cellulase were performed using a number of polysaccharide-degrading enzymes and proteases. […] Both carbohydrate-degrading enzymes and proteases were effective at degrading the sheaths.
While not wishing to be bound to any particular hypothesis, based on the results of Examples 1, 2, and 3, it is hypothesized that the structure of the ACP SSs could include protein cross-links that are catalyzed by an enzyme with an oxidative role, an enzyme at least somewhat similar to a lysyl oxidase. To determine if a protein is associated with the identified glucan, proteases were tested in experiments similar to Examples 1 and 2 above. The following proteases were added individually in separate experiments (described infra) to membranes on which D. citri adults were previously allowed to first form sheaths in the absence of proteases: Flavourzyme® (a protease cocktail), carboxypeptidase W, chymopapain, bromelain, papain, ficin, licheninase, laminarinase, and β-(1→3)-D-glucanase. […]

D. citri [2] = test: Liquid ACP diet sandwich feeding assay (MFC): inhibition of de novo stylet sheath formation; assay type: in vivo, Diaphorina citri; parameters: key: −: No effect apparent; +/−: inconclusive; +: apparent slight effect; ++: increased apparent effect; +++: high effect; ++++: very high effect; +++++: complete degradation of sheaths or inhibition of sheath synthesis; settings: enzyme in liquid ACP diet, about 24 h, 25° C., enzyme amounts and pH per Table 5 (cellulase approx 1 unit/μl)
Experimental: (§1) The next step was to determine if addition of cellulase to the diet of D. citri would interfere with stylet sheath formation. A D. citri diet is prepared as described by Hall, David et al., “Research toward an artificial diet for adult Asian citrus psyllid,” Annals of the Entomological Society of America 103.4:611-617 (2010). Approximately 25 D. citri were collected into polystyrene Cellstar 35 mm×10 mm dishes (Griener Bio-One, Monroe, N.C.) that were then sealed using a single layer of Parafilm® M (Pechiney Plastic Packaging Company, Chicago, Ill.). Approximately 99 μl of liquid ACP diet (e.g., diet lacking the solidifying agar component, see Hall, et. al., 2010, supra) was mixed with approximately 1 μl of cellulase (Sigma Aldrich, St. Louis, Mo.) and mixed. […]
(§2) Because many biomolecule polymerizing enzymes require divalent cations as cofactors, the effect of ethylenediaminetetraacetic acid (EDTA), a chelator of divalent cations, on ACP SS formation was tested by adding EDTA to the previously described liquid ACP diet (see Hall et al., 2010, supra). […] Uncommon bands between the liquid ACP diet containing EDTA and liquid ACP diet without EDTA (negative control) lanes were cut out and analyzed by Orbitrap (Thermo Scientific, Waltham, Mass.) protein analysis, according to manufacturer's protocol. […]

D. citri [3] = test: as above; assay type: in vivo, Diaphorina citri; settings: about 24 h; cellulase approx 1 unit/μl; BAPN 100 mM; EDTA approx 2 mM; proteases per Table 5
Experimental: as §1, §2

| Molecule | Sheath Degradation ([1]; D. citri preformed sheaths) | Inhibition of Sheath Formation (D. citri [2]) | Effect on D. citri stylet sheath formation in liquid ACP diet (D. citri [3]) | Effect on preformed D. citri stylet sheaths [1] | Sheath Degradation, remark in words ([1]; D. citri preformed sheaths) |
| --- | --- | --- | --- | --- | --- |
| B1 | − | − | did not appear to have an inhibitory effect |  |  |
| B2 | +++++ |  |  | completely dissolves |  |
| B3 | ++ |  |  | adversely impact stylet sheath integrity | Sheaths swell |
| B4 | ++ | ++++ | capable of inhibiting the formation of ACP SSs |  |  |
